Measured values as given in paper doi:10.64898/2025.12.30.697126.

Biological target: SUMO-SRCAP_(521-569) (human)
Test: ITC

Sequence of SUMO-SRCAP_(521-569) (human) (Q6ZRS2 521-569): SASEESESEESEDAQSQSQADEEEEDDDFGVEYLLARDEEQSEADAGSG

Kd: 256 nM
Substance: H2A.Z/H2B dimer, wild type (from UniProt P0C0S5 1-128; P06899 1-126) (complex)
